Where two headings read alike, the source gives them in different places.
How the values were obtained:
[1] = molecular target: L1-CAM-Fc (UniProt P32004); assay: SPR (Biacore T100), L1-CAM-Fc immobilised on CM5 chip
[2] = molecular target: L1-CAM-Fc (UniProt P32004); assay: as above; remark: listed apart in the source
[3] = molecular target: L1-CAM-His; assay: SPR (Biacore T100), L1-CAM-His immobilised on CM5 chip
Chain of L1-CAM-His (P32004 20-1120): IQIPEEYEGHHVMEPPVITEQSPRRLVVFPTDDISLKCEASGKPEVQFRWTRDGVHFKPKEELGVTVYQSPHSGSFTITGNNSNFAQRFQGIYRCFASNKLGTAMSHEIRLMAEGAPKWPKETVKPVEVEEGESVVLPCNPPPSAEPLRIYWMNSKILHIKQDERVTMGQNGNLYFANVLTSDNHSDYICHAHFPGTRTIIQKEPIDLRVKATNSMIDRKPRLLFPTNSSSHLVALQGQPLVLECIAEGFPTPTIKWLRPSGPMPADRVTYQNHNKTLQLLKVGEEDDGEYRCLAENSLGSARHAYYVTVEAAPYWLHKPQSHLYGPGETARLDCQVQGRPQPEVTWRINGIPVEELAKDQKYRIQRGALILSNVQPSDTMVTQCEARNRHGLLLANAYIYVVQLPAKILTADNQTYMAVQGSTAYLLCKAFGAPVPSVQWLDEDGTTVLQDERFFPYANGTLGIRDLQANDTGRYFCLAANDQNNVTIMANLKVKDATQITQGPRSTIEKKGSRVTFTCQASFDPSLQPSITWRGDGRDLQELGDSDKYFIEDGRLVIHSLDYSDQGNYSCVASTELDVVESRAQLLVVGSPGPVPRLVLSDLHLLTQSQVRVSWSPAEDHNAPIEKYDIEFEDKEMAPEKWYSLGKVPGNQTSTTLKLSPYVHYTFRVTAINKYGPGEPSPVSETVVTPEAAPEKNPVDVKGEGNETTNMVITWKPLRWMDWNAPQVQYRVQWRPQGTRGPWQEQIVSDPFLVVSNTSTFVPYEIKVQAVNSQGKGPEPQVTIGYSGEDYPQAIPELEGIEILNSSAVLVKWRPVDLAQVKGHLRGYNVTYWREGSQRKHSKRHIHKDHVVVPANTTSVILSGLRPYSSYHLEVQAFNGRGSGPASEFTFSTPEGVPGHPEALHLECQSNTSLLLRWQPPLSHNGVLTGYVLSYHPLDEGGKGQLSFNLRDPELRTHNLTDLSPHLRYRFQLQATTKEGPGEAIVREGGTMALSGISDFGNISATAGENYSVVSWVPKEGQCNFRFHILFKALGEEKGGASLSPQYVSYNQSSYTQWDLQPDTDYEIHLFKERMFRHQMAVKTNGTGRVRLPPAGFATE

Chain of L1-CAM-Fc (P32004 20-1120 limits assumed): as the sequence (P32004 20-1120) above

- Kd [1]: 0.618 nM
- Kd [2]: 1.42 nM
- Kd [3]: 1.3 nM
B1: chCE7 (antibody, from another filing, V domains shown)
VH: QVQLQQPGAELVKPGASVKLSCKASGYTFTGYWMHWVKQRPGHGLEWIGEINPSNGRTNYNERFKSKATLTVDKSSTTAFMQLSGLTSEDSAVYFCARDYYGTSYNFDYWGQGTTLTVSS
VL: DIQMTQSSSSFSVSLGDRVTITCKANEDINNRLAWYQQTPGNSPRLLISGATNLVTGVPSRFSGSGSGKDYTLTITSLQAEDFATYYCQQYWSTPFTFGSGTELEIK

Reference: patent publication US20240002501A1
